The subject of data set [1] is HeLa Kyoto. Kind of data set: solubility in G1/S (NP-40 vs SDS abundance) (log2 ratio); higher = more soluble. The settings on record: cell cycle stage: G1/S.
The test system of data set [2] is HeLa Kyoto. The data set is described as follows: melting temperature (median over replicates), in situ; higher = more thermally stable.
For data set [3], the system named is HeLa Kyoto. Kind of data set: solubility change mitosis vs G1/S (difference of NP-40 vs SDS log2 ratios) (log2 ratio difference); higher = more soluble in mitosis.
Data set [4] relates to HeLa Kyoto. The data set is described as follows: thermal stability score vs G1/S (z-score of summed log2 fold changes over temperatures); higher = more thermally stable than in G1/S.
The mark [5] stands for this setting: cell cycle stage: early G1 (4.5 h after nocodazole release).
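Wherever melting temperature (median over replicates), in situ is given: HeLa Kyoto cells synchronized by double thymidine or nocodazole block, proteins quantified by TMT10plex mass spectrometry, three independent biological replicates.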
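Wherever solubility change mitosis vs G1/S (difference of NP-40 vs SDS log2 ratios) is given: synchronized HeLa Kyoto cells (double thymidine block for G1/S, nocodazole release for mitosis), protein amounts in NP-40 versus SDS lysates quantified by mass spectrometry, three biological replicates.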
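Wherever solubility in G1/S (NP-40 vs SDS abundance) is given: HeLa Kyoto cells arrested at G1/S by double thymidine block, proteins quantified by TMT10plex mass spectrometry in mild NP-40 versus SDS extracts, three biological replicates.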
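Wherever thermal stability score vs G1/S (z-score of summed log2 fold changes over temperatures) is given: synchronized HeLa Kyoto cells, proteins quantified by TMT10plex mass spectrometry, three biological replicates, mitosis taken 0.5 h after nocodazole release, G1/S directly after double thymidine block.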

As to “MTAEDSTAAMSSDSAAGSSAKVPEGVAGAPNEAALLALMERTGYSMVQENGQRKYGGPPPGWEGPHPQRGCEVFVGKIPRDVYEDELVPVFEAVGRIYELRLMMDFDGKNRGYAFVMYCHKHEAKRAVRELNNYEIRPGRLLGVCCSVDNCRLFIGGIPKMKKREEILEEIAKVTEGVLDVIVYASAADKMKNRGFAFVEYESHRAAAMARRKLMPGRIQLWGHQIAVDWAEPEIDVDEDVMETVKILYVRNLMIETTEDTIKKSFGQFNPGCVERVKKIRDYAFVHFTSREDAVHAMNNLNGTELEGSCLEVTLAKPVDKEQYSRYQKAARGGGAAEAAQQPSYVYSCDPYTLAYYGYPYNALIGPNRDYFVKAGSIRGRGRGAAGNRAPGPRGSYLGGYSAGRGIYSRYHEGKGKQQEKGYELVPNLEIPTVNPVAIKPGTVAIPAIGAQYSMFPAAPAPKMIEDGKIHTVEHMISPIAVQPDPASAAAAAAAAAAAAAAVIPTVSTPPPFQGRPITPVYTVAPNVQRIPTAGIYGASYVPFAAPATATIATLQKNAAAAAAMYGGYAGYIPQAFPAAAIQVPIPDVYQTY [RBM47]”, the “solubility in G1/S (log2)” value with HeLa Kyoto [1] is -0.0256. The melting temperature in the data set on HeLa Kyoto [2] (cell cycle stage: G1/S) amounted to 48.2 °C; in the data set with HeLa Kyoto [2] (cell cycle stage: mitosis) it was 47.4 °C. The “solubility change mitosis (log2)” value in the data set with HeLa Kyoto [3] was -0.0191. Moreover, the thermal stability score with HeLa Kyoto [4] (setting [5]) came to 0.77; with HeLa Kyoto [4] (cell cycle stage: mitosis), 1.83.
In the case of “MTAEEMKATESGAQSAPLPMEGVDISPKQDEGVLKVIKREGTGTEMPMIGDRVFVHYTGWLLDGTKFDSSLDRKDKFSFDLGKGEVIKAWDIAIATMKVGEVCHITCKPEYAYGSAGSPPKIPPNATLVFEVELFEFKGEDLTEEEDGGIIRRIQTRGEGYAKPNEGAIVEVALEGYYKDKLFDQRELRFEIGEGENLDLPYGLERAIQRMEKGEHSIVYLKPSYAFGSVGKEKFQIPPNAELKYELHLKSFEKAKESWEMNSEEKLEQSTIVKERGTVYFKEGKYKQALLQYKKIVSWLEYESSFSNEEAQKAQALRLASHLNLAMCHLKLQAFSAAIESCNKALELDSNNEKGLFRRGEAHLAVNDFELARADFQKVLQLYPNNKAAKTQLAVCQQRIRRQLAREKKLYANMFERLAEEENKAKAEASSGDHPTDTEMKEEQKSNTAGSQSQVETEA [FKBP4]”, the “solubility in G1/S (log2)” value with HeLa Kyoto [1] is 0.197. Moreover, the figures for the melting temperature with HeLa Kyoto [2] (cell cycle stage: G1/S) and in the data set on HeLa Kyoto [2] (cell cycle stage: mitosis) were 50 °C and 50.1 °C, respectively. For the same sequence, the “solubility change mitosis (log2)” value in the data set on HeLa Kyoto [3] is -0.129. Also, the thermal stability score amounted to 1.07 in the data set on HeLa Kyoto [4] (setting [5]) and 1.03 in the data set with HeLa Kyoto [4] (cell cycle stage: mitosis).
“MTANRDAALSSHRHPGCAQRPRTPTFASSSQRRSAFGFDDGNFPGLGERSHAPGSRLGARRRAKTARGLRGHRQRGAGAGLSRPGSARAPSPPRPGGPENPGGVLSVELPGLLAQLARSFALLLPVYALGYLGLSFSWVLLALALLAWCRRSRGLKALRLCRALALLEDEERVVRLGVRACDLPAWVHFPDTERAEWLNKTVKHMWPFICQFIEKLFRETIEPAVRGANTHLSTFSFTKVDVGQQPLRINGVKVYTENVDKRQIILDLQISFVGNCEIDLEIKRYFCRAGVKSIQIHGTMRVILEPLIGDMPLVGALSIFFLRKPLLEINWTGLTNLLDVPGLNGLSDTIILDIISNYLVLPNRITVPLVSEVQIAQLRFPVPKGVLRIHFIEAQDLQGKDTYLKGLVKGKSDPYGIIRVGNQIFQSRVIKENLSPKWNEVYEALVYEHPGQELEIELFDEDPDKDDFLGSLMIDLIEVEKERLLDEWFTLDEVPKGKLHLRLEWLTLMPNASNLDKVLTDIKADKDQANDGLSSALLILYLDSARNLPSGKKISSNPNPVVQMSVGHKAQESKIRYKTNEPVWEENFTFFIHNPKRQDLEVEVRDEQHQCSLGNLKVPLSQLLTSEDMTVSQRFQLSNSGPNSTIKMKIALRVLHLEKRERPPDHQHSAQVKRPSVSKEGRKTSIKSHMSGSPGPGGSNTAPSTPVIGGSDKPGMEEKAQPPEAGPQGLHDLGRSSSSLLASPGHISVKEPTPSIASDISLPIATQELRQRLRQLENGTTLGQSPLGQIQLTIRHSSQRNKLIVVVHACRNLIAFSEDGSDPYVRMYLLPDKRRSGRRKTHVSKKTLNPVFDQSFDFSVSLPEVQRRTLDVAVKNSGGFLSKDKGLLGKVLVALASEELAKGWTQWYDLTEDGTRPQAMT [ESYT2]”: the “solubility in G1/S (log2)” value in the data set on HeLa Kyoto [1] was -0.095. For the same sequence, the values for the melting temperature in the data set on HeLa Kyoto [2] (cell cycle stage: G1/S) and with HeLa Kyoto [2] (cell cycle stage: mitosis) were 51.2 °C and 51.5 °C, respectively. Besides, in the data set on HeLa Kyoto [3], the “solubility change mitosis (log2)” value is -0.0587. Moreover, the thermal stability score in the data set with HeLa Kyoto [4] (setting [5]) came out at 0.682; in the data set on HeLa Kyoto [4] (cell cycle stage: mitosis), 0.876.
Regarding “MTAVHAGNINFKWDPKSLEIRTLAVERLLEPLVTQVTTLVNTNSKGPSNKKRGRSKKAHVLAASVEQATENFLEKGDKIAKESQFLKEELVAAVEDVRKQGDLMKAAAGEFADDPCSSVKRGNMVRAARALLSAVTRLLILADMADVYKLLVQLKVVEDGILKLRNAGNEQDLGIQYKALKPEVDKLNIMAAKRQQELKDVGHRDQMAAARGILQKNVPILYTASQACLQHPDVAAYKANRDLIYKQLQQAVTGISNAAQATASDDASQHQGGGGGELAYALNNFDKQIIVDPLSFSEERFRPSLEERLESIISGAALMADSSCTRDDRRERIVAECNAVRQALQDLLSEYMGNAGRKERSDALNSAIDKMTKKTRDLRRQLRKAVMDHVSDSFLETNVPLLVLIEAAKNGNEKEVKEYAQVFREHANKLIEVANLACSISNNEEGVKLVRMSASQLEALCPQVINAALALAAKPQSKLAQENMDLFKEQWEKQVRVLTDAVDDITSIDDFLAVSENHILEDVNKCVIALQEKDVDGLDRTAGAIRGRAARVIHVVTSEMDNYEPGVYTEKVLEATKLLSNTVMPRFTEQVEAAVEALSSDPAQPMDENEFIDASRLVYDGIRDIRKAVLMIRTPEELDDSDFETEDFDVRSRTSVQTEDDQLIAGQSARAIMAQLPQEQKAKIAEQVASFQEEKSKLDAEVSKWDDSGNDIIVLAKQMCMIMMEMTDFTRGKGPLKNTSDVISAAKKIAEAGSRMDKLGRTIADHCPDSACKQDLLAYLQRIALYCHQLNICSKVKAEVQNLGGELVVSGVDSAMSLIQAAKNLMNAVVQTVKASYVASTKYQKSQGMASLNLPAVSWKMKAPEKKPLVKREKQDETQTKIKRASQKKHVNPVQALSEFKAMDSI [CTNNA1]”, in the data set with HeLa Kyoto [1], the “solubility in G1/S (log2)” value was 0.402. In addition, the melting temperature in the data set on HeLa Kyoto [2] (cell cycle stage: G1/S) was 52.6 °C; with HeLa Kyoto [2] (cell cycle stage: mitosis) it was 52.2 °C. Besides, the “solubility change mitosis (log2)” value with HeLa Kyoto [3] is -0.0404. Further, the results for the thermal stability score with HeLa Kyoto [4] (setting [5]) and in the data set on HeLa Kyoto [4] (cell cycle stage: mitosis) were -0.182 and -0.645, respectively.
Consider “MTDDKDVLRDVWFGRIPTCFTLYQDEITEREAEPYYLLLPRVSYLTLVTDKVKKHFQKVMRQEDISEIWFEYEGTPLKWHYPIGLLFDLLASSSALPWNITVHFKSFPEKDLLHCPSKDAIEAHFMSCMKEADALKHKSQVINEMQKKDHKQLWMGLQNDRFDQFWAINRKLMEYPAEENGFRYIPFRIYQTTTERPFIQKLFRPVAADGQLHTLGDLLKEVCPSAIDPEDGEKKNQVMIHGIEPMLETPLQWLSEHLSYPDNFLHISIIPQPTD [ATG5]”, for which the “solubility in G1/S (log2)” value in the data set with HeLa Kyoto [1] amounted to 0.406. The melting temperature in the data set with HeLa Kyoto [2] (cell cycle stage: G1/S) is 54.2 °C; with HeLa Kyoto [2] (cell cycle stage: mitosis) it was 53.6 °C. Moreover, the “solubility change mitosis (log2)” value with HeLa Kyoto [3] worked out at 0.0407. Also, the thermal stability score with HeLa Kyoto [4] (setting [5]) was -0.587; in the data set on HeLa Kyoto [4] (cell cycle stage: mitosis), 0.0242.
“MTDGDYDYLIKLLALGDSGVGKTTFLYRYTDNKFNPKFITTVGIDFREKRVVYNAQGPNGSSGKAFKVHLQLWDTAGQERFRSLTTAFFRDAMGFLLMFDLTSQQSFLNVRNWMSQLQANAYCENPDIVLIGNKADLPDQREVNERQARELADKYGIPYFETSAATGQNVEKAVETLLDLIMKRMEQCVEKTQIPDTVNGGNSGNLDGEKPPEKKCIC [RAB27B]”: the “solubility in G1/S (log2)” value with HeLa Kyoto [1] was found to be 0.00344. Further, the melting temperature in the data set with HeLa Kyoto [2] (cell cycle stage: G1/S) is 55.7 °C; in the data set with HeLa Kyoto [2] (cell cycle stage: mitosis) it was 59.9 °C. For the same sequence, in the data set with HeLa Kyoto [3], the “solubility change mitosis (log2)” value was -0.0223. Also, the thermal stability score with HeLa Kyoto [4] (setting [5]) is -1.38; with HeLa Kyoto [4] (cell cycle stage: mitosis) it was -2.39.

(Values after the supplement of paper PMC5998384.)
